Results taken from patent US20090312245A1, “SRA binding protein” (The University of Western Australia, priority 2005, published 2009).
Blank lines part the entries; values can stand above or below the molecule they belong to.

Legend:
estrogen receptor (ER) = assay: ERE-Luc (E2-responsive) reporter transfection assay in HeLa cells; type: cell-based, human
Method: HeLa cells were transfected using FuGENE6 (Roche) with equal molar ratios of control and plasmid DNA: 50 ng/well ER(α); 0.6 μg/well ERE-Luc, GRE-Luc, TRE-Luc, ARE-Luc, VDRE-Luc; 0.0625 μg/well pSCT or 0.08 μg/well pSCT-SRA/pSCT-SRA-SDM7a; 0.049 μg/well pCMV-FLAG-7.1 or […] FLAG-SLIRP/FLAG-SLIRP-R24/FLAG-SLIRP-L62/FLAG-SLIRP-DM; 0.3 μg/well pCMX or 0.5 μg/well pCMX-SHARP; 100 ng/well pCGN or 100 ng/well pCGN-SKIP. After transfection, cells were cultured in complete medium for 24 h, prior to the addition of E2 (10 nM), Dex (10 nM), T3 (1 nM), DHT (10 nM), VitD (100 nM), 4-hydroxytamoxifen (Tam, 1 nM), ICI182780 (ICI, 1 nM) or equal volume of vehicle (absolute ethanol or water). After 8 h, lysates were assayed for luciferase activity relative to protein levels using Luciferase (Promega) and Protein Assay (BioRad) on a FluorStar Optima (BMG).

SRA STR7 = assay: REMSA with 32P-labeled SRA STR7 probe and recombinant proteins; type: binding, human; conditions: in the presence of heparin and RNase T1
Excerpt: The yeast three-hybrid SLIRP cDNA clone containing the coding region and 3′ UTR, was amplified with specific primers SLIRP (sense) 5′ cgc gga tcc gcg gcc tca gca gca 3′, SLIRP (reverse) 5′ gcg cgg atc cta ggc tgc agt ctca 3′, and subcloned into BamHI cut pCMV-FLAG 7.1 for transfection assays and pGEX-6P2 for GST-fusion protein experiments. STR7 primers (sense) 5′ agg agg cag gta tgt gat gac atc agc cga cgc ctg gca ctg ctg cag gaa cag tgg gct gga gga aag ttg tca ata cct gta aag aa 3′ and (reverse) 5′ ttc ttt aca ggt aft gac aac ttt cct cca gcc cac tgt tcc tgc agc agt gcc agg cgt cgg ctg atg tca tca cat acc tgc ttc ct 3′ were annealed and cloned into EcoRV-digested pBluescript II KS+ to generate labeled riboprobes. To generate the SRA mutant SDM7, the underlined residues above were mutated to tcc, ctc and ctc as outlined previously (19). pBluescript vectors were linearized with EcoRV for transcription with T7 or T3 RNA polymerase (Invitrogen) in reactions containing [^32P]UTP (Amersham Biosciences) or unlabeled UTP, as described (16), to produce riboprobes with a specific activity of ˜2×10^9 cpm/μg RNA. Constructs for expressing mutant forms of SLIRP (R24, 25A and L62A) were prepared by PCR-based mutagenesis. Each of the mutant coding domains was subcloned into BamH1-cut pCMV-FLAG 7.1 and pGEX-6P2 as above. […]

Molecule: SHARP: SMRT/HDAC1 associated repressor protein, SRA corepressor, transfected expression vector [reference compound]
repression of SRA-mediated coactivation of E2-responsive reporter (estrogen receptor (ER); cotransfected with SRA): repressed SRA-mediated coactivation

binding to SRA STR7 probe (SRA STR7): bound STR7 avidly
B1: GST-SHARP-RRM: GST-SHARP fusion protein containing the three RRM domains (SHARP aas 1-608) (protein, UniProt Q96T58 1-608, looked up, fragment)
chain: MVRETRHLWVGNLPENVREEKIIEHFKRYGRVESVKILPKRGSEGGVAAFVDFVDIKSAQKAHNSVNKMGDRDLRTDYNEPGTIPSAARGLDDTVSIASRSREVSGFRGGGGGPAYGPPPSLHAREGRYERRLDGASDNRERAYEHSAYGHHERGTGGFDRTRHYDQDYYRDPRERTLQHGLYYASRSRSPNRFDAHDPRYEPRAREQFTLPSVVHRDIYRDDITREVRGRRPERNYQHSRSRSPHSSQSRNQSPQRLASQASRPTRSPSGSGSRSRSSSSDSISSSSSTSSDSSDSSSSSSDDSPARSVQSAAVPAPTSQLLSSLEKDEPRKSFGIKVQNLPVRSTDTSLKDGLFHEFKKFGKVTSVQIHGTSEERYGLVFFRQQEDQEKALTASKGKLFFGMQIEVTAWIGPETESENEFRPLDERIDEFHPKATRTLFIGNLEKTTTYHDLRNIFQRFGEIVDIDIKKVNGVPQYAFLQYCDIASVCKAIKKMDGEYLGNNRLKLGFGKSMPTNCVWLDGLSSNVSDQYLTRHFCRYGPVVKVVFDRLKGMALVLYNEIEYAQAAVKETKGRKIGGNKIKVDFANRESQLAFYHCMEKSGQDIRD
modifications: GST fusion

B2: SKIP: coregulator, coactivator of ER transactivation, transfected expression vector (protein, UniProt Q13573 2-536, looked up)
SNW domain-containing protein …: ALTSFLPAPTQLSQDQLEAEEKARSQRSRQTSLVSSRREPPPYGYRKGWIPRLLEDFGDGGAFPEIHVAQYPLDMGRKKKMSNALAIQVDSEGKIKYDAIARQGQSKDKVIYSKYTDLVPKEVMNADDPDLQRPDEEAIKEITEKTRVALEKSVSQKVAAAMPVRAADKLAPAQYIRYTPSQQGVAFNSGAKQRVIRMVEMQKDPMEPPRFKINKKIPRGPPSPPAPVMHSPSRKMTVKEQQEWKIPPCISNWKNAKGYTIPLDKRLAADGRGLQTVHINENFAKLAEALYIADRKAREAVEMRAQVERKMAQKEKEKHEEKLREMAQKARERRAGIKTHVEKEDGEARERDEIRHDRRKERQHDRNLSRAAPDKRSKLQRNENRDISEVIALGVPNPRTSNEVQYDQRLFNQSKGMDSGFAGGEDEIYNVYDQAWRGGKDMAQSIYRPSKNLDKDMYGDDLEARIKTNRFVPDKEFSGSDRRQRGREGPVQFEEDPFGLDKFLEEAKQHGGSKRPSDSSRPKEHEHEGKKRRKE
total increase in reporter activity (estrogen receptor (ER); SKIP with cotransfected SRA): ~6 fold
increase of reporter activity (estrogen receptor (ER); transfected SKIP alone): ~2 fold
